Source: US20240043528A1, “NANOBODY-OGA FUSIONS AND USES THEREOF” (President and Fellows of Harvard College, priority 2020, published 2024)

Tested on: O-GlcNAcylated proteome
Test: Quantitative TMT mass spectrometry of enriched O-GlcNAcylated proteome
Type: cell-based, human
Conditions: co-expression of GFP-Sp1, versus N2(D174N)+C3, n=4
Method: Purification of GalT1 (Y289L) enzyme and labeling of O-GlcNAcylated proteins with GalNAz were performed according to the procedure of Hsieh-Wilson and co-workers (Thompson, J. W., Griffin, M. E. & Hsieh-Wilson, L. C. Methods for the Detection, Study, and Dynamic Profiling of O-GlcNAc Glycosylation. Methods Enzymol. 2018, 598, 101-135). Briefly, cell samples in 6-well plates or 15-cm dishes were harvested and washed by PBS once. The lysis buffer (PBS with 2% SDS) was added into cell pellets and heated for 5 min at 95° C., followed by the sonication to sheer DNA. Protein concentrations were determined by BCA assay. Cell lysates were reduced and alkylated with 25 mM DTT at 95° C. for 5 min and 50 mM iodoacetamide at room temperature for 1 h respectively. Proteins were precipitated by the methanol/chloroform solution (aqueous phase:CH3OH:CHCl3=4:4:1) and resuspended in 1% SDS, 20 mM HEPES (pH 7.9) buffer with a concentration of 3.75 mg/mL. For 150 μg proteins, H2O (49 μL), 2.5×GalT labeling buffer (80 μL, final concentrations: 50 mM NaCl, 20 mM HEPES, 2% NP-40, pH 7.9), 100 mM MnCl2 (11 μL), 500 μM UDP-GalNAz (10 μL), 2 mg/mL GalT1 (Y289L) (10 μL) were added into cell lysates orderly. […]
For quantitative proteomics, after reaction with Biotin-Alkyne probe, proteins were precipitated and resuspended in 400 μL PBS containing 2% SDS. […]

B1: split OGA (N2+C3): split OGA fragments N2 and C3 without nanobody (protein)
chain 1: MEQKLISEEDLAIAMVQKESQATLEERESELSSNPAASAGASLEPPAAPAPGEDNPAGAGGAAVAGAAGGARRFLCGVVEGFYGRPWVMEQRKELFRRLQKWELNTYLYAPKDDYKHRMFWREMYSVEEAEQLMTLISAAREYEIEFIYAISPGLDITFSNPKEVSTLKRKLDQVSQFGCRSFALLFDDIDHNMCAADKEVFSSFAHAQVSITNEIYQYLGEPETFLFCPTEYCGTFCYPNVSQSPYLRTVGEKLLPGIEVLWTGPKVVSKEIPVESIEEVSKIIKRAPVIWDNIHANDYDQKRLFLGPYKGRSTELIPRLKGVLTNPNCEFEANYVAIHTLATWYKSNMNGVRKDVVMTDSEDSTVSIQIKLENEGSDEDIETDVLYSPQMALKLALTEWLQEFGVPHQYSSR
chain 2: MAYPYDVPDYAAIAEKPLYTAEPVTLEDLQLLADLFYLPYEHGPKGAQMLREFQWLRANSSVVSVNCKGKDSEKIEEWRSRAAKFEEMCGLVMGMFTRLSNCANRTILYDMYSYVWDIKSIMSMVKSFVQWLGCRSHSSAQFLIGDQEPWAFRGGLAGEFQRLLPIDGANDLFFQPP
B1 was tested, and the “global O-GlcNAc proteome versus inactive form” value was “no significant difference from that of the inactive form”.
